Values of other authors in US20240199736A1, “COMBINATION THERAPY INVOLVING ANTIBODIES AGAINST CLAUDIN 18.2 FOR TREATMENT OF CANCER” (ASTELLAS PHARMA INC., priority 2021, published 2024).

What was measured:
[1] = target: first extracellular domain (ECD1) of CLDN18.2 (Homo sapiens, UniProt P56856)
[2] = target: splice variant 1 of Claudin 18 (CLDN18.1) (Homo sapiens, UniProt P56856)

## IMAB362: chimeric IgG1 antibody directed against CLDN18.2; heavy chain SEQ ID NO: 51, light chain SEQ ID NO: 24
[1]
  Recognition of ECD1 of CLDN18.2: high affinity and specificity
[2]
  Binding to other claudin family members including CLDN18.1: does not bind
